T1: mouse beta-klotho (KLB) on HEK293 cells (mouse, UniProt Q99N32 1-1043)
T1 sequence (looked up): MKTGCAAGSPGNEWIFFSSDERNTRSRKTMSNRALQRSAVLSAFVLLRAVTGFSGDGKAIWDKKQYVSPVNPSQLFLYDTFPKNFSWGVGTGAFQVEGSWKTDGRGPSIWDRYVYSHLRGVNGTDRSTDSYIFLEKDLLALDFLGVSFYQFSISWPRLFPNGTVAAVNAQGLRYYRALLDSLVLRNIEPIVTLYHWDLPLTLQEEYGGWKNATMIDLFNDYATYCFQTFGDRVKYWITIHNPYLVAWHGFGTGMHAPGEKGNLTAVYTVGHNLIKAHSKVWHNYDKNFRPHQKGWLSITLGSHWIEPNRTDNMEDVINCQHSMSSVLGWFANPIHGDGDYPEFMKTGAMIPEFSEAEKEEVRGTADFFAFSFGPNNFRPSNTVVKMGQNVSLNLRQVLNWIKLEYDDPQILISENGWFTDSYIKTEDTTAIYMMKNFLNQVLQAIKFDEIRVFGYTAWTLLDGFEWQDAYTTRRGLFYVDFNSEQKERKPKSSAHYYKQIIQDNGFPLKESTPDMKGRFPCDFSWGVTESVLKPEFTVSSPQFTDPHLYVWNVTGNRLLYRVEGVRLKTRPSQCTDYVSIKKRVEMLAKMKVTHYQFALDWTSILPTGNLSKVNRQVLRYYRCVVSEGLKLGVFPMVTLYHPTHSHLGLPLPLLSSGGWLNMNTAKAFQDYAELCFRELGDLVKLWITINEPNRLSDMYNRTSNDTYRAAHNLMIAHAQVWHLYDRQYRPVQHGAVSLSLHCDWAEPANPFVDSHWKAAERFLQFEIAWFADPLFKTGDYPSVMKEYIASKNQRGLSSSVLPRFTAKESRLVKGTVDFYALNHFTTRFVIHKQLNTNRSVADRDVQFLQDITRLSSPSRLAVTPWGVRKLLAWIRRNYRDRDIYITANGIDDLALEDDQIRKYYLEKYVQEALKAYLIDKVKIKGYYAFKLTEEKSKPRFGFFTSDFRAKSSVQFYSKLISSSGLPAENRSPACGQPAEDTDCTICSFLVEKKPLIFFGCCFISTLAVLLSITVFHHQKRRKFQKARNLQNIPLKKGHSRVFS


How the values were obtained:
[1] = target: T2, human beta-klotho (KLB) on HEK293 cells (human, UniProt Q86Z14 1-1044); experiment: cell-based or functional assay
[2] = target: T3, FGFR1c/KLB: ectodomain of human FGFR1c fused to Fc, with human beta-klotho (human, UniProt P11362 22-376; Q86Z14 53-996); experiment: AlphaScreen or HTRF; competition: biotinylated FGF21 on streptavidin donor beads, ectodomain of human FGFR1c, FGFR2c, FGFR3c or FGFR4 fused to Fc on Protein A acceptor beads, human KLB protein added; signal inhibited by increasing doses of FGF21 analog; 0.1% ovalbumin; indirect measure of binding affinity, reported as IC50; conditions: both partners purified
T3 construct: ectodomain of human fibroblast growth factor receptor 1, c-isoform (FGFR1c); human beta-klotho (KLB, printed there as BKL) protein; FGFR-Fc on Protein A acceptor beads, KLB added in solution; the bought KLB is, as I recall, the extracellular domain; also called FGF-receptor complex; source: bought: R&D Systems (both proteins)

[3] = target: T3, FGFR1c/KLB: ectodomain of human FGFR1c …; experiment: cell-based or functional assay
[4] = target: FGFR3c/KLB: ectodomain of human FGFR3c fused to Fc, with human beta-klotho (human, UniProt P22607 23-375; Q86Z14 53-996); experiment: cell-based or functional assay
[5] = target: T2, human beta-klotho (KLB) on HEK293 cells; experiment: cell-based or functional assay; remark: listed apart in the source
[6] = target: T1, mouse beta-klotho (KLB) on HEK293 cells; experiment: cell-based or functional assay
[7] = target: cynomolgus monkey beta-klotho (KLB) on HEK293 cells (cynomolgus monkey); experiment: cell-based or functional assay
[8] = target: BSA (albumin of the FAP incubations) (bovine, UniProt P02769 25-607); experiment: cell-based or functional assay
BSA (albumin of the FAP incubations), sequence (P02769 25-607): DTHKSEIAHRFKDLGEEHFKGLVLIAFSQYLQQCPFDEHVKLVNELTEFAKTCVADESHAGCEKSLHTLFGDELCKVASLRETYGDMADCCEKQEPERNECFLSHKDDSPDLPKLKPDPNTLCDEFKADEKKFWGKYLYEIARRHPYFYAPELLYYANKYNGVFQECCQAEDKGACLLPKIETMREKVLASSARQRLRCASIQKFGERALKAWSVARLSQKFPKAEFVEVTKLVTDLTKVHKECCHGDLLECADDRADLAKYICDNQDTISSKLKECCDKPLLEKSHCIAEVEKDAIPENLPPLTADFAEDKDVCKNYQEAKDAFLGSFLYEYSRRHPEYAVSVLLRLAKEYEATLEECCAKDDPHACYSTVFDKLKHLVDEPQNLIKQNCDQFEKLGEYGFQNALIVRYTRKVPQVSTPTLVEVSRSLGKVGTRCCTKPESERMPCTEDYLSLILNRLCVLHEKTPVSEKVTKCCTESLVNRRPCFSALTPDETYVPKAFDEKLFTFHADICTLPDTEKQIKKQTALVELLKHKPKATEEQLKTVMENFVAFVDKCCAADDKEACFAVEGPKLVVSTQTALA

[9] = target: human serum albumin (HSA) (human, UniProt P02768 25-609); experiment: cell-based or functional assay
[10] = target: the molecule itself; experiment: AF4-MALS; 15 at 49-88 mg/mL in 10 mM phosphate, pH 8.2 with 2% glycerol, 1 uL injected; running buffer 10 mM phosphate pH 8.2 with 10 mM NaCl; analysed again after dilution to 5 mg/mL

| potency (EC50) of ERK phosphorylation in HEK293 cells transfected with human KLB, without HSA [1] [nM] | pIC50 [2] | potency EC50 of ERK phosphorylation in Ba/F3 cells overexpressing human KLB and FGFR1c, 0% HSA [3] [nM] | potency EC50 of ERK phosphorylation in Ba/F3 cells overexpressing human KLB and FGFR3c (chimera with the kinase domain of FGFR1c), 0% HSA [4] [nM] | mean EC50 of ERK phosphorylation in HEK293 cells overexpressing human KLB (species qualification) [5] [nM] | mean EC50 of ERK phosphorylation in HEK293 cells overexpressing mouse KLB [6] [nM] | mean EC50 of ERK phosphorylation in HEK293 cells overexpressing cynomolgus monkey KLB [7] [nM] | potency (EC50) of ERK phosphorylation in HEK293 cells transfected with human KLB, without HSA (with 0.1, 1.0 and 1.5% HSA: 1.4, 0.9 and 1.5 nM, Table 3) [1] [nM] | t1/2 of 15 toward degradation by FAP in vitro in the presence of 0.1% albumin (27–57 min for 1, 15 and 5 without albumin) [8] [h] | potency (EC50) of ERK phosphorylation in HEK293/human KLB cells with 0.1, 1.0 and 1.5% HSA: 23, 195 and 198 nM (3.3 nM without HSA) [9] [nM] | Binder | binding result [10] |
| --- | --- | --- | --- | --- | --- | --- | --- | --- | --- | --- | --- |
| 3.9 | 5.79 ± 0.05 | – | – | – | – | – | – | – | – | FGF21 analog 17 (-1A, 121Q, 168L, 180C, des181; C18 fatty diacid on 180C) (ligand, human, C18 diacid gGlu-OEG-OEG-C2DA-Ac side chain on Cys180, single amino acid N-terminal extension (-1A), giving the N-terminus AHPIP; human FGF21, mature hormone without its last residue Ser181; numbers count on: the mature protein; source: E. coli BL21 (DE3)-derived strain, inclusion bodies, purified; side chain conjugated to the Cys, purified by anion exchange (MonoQ)) AHPIPDSSPLLQFGGQVRQRYLYTDDAQQTEAHLEIREDGTVGGAADQSPESLLQLKALKPGVIQILGVKTSRFLCQRPDGALYGSLHFDPEACSFRELLLEDGYNVYQSEAHGLPLHLPGQKSPHRDPAPRGPARFLPLPGLPPALPEPPGILAPQPPDVGSSDPLSLVGPSQGRSPSYC | – |
| 1.6 | 6.56 ± 0.89 | 3.7 | 10.8 | 3 | 0.3 | 1.8 | – | – | – | Met-FGF21 (1) (ligand, human, single amino acid N-terminal extension (-1M), giving the N-terminus MHPIP; human FGF21, mature 181-residue hormone (N-terminus HPIP, C-terminus Ser181); numbers count on: the mature protein; also called human FGF21 with N-terminal Met extension; -1M; source: E. coli BL21 (DE3)-derived strain, inclusion bodies, purified (Q Sepharose FF, Phenyl FF, Source 30Q where needed)) MHPIPDSSPLLQFGGQVRQRYLYTDDAQQTEAHLEIREDGTVGGAADQSPESLLQLKALKPGVIQILGVKTSRFLCQRPDGALYGSLHFDPEACSFRELLLEDGYNVYQSEAHGLPLHLPGNKSPHRDPAPRGPARFLPLPGLPPALPEPPGILAPQPPDVGSSDPLSMVGPSQGRSPSYAS | – |
| – | 6.18 ± 0.1 | – | – | – | – | – | 2 | – | – | stabilized backbone (4): -1A, 121Q, 168L FGF21 (ligand, human, single amino acid N-terminal extension (-1A), giving the N-terminus AHPIP; human FGF21, mature 181-residue hormone; numbers count on: the mature protein; also called stabilized backbone of 15; source: E. coli BL21 (DE3)-derived strain, inclusion bodies, purified (Q Sepharose FF, Phenyl FF, Source 30Q where needed)) AHPIPDSSPLLQFGGQVRQRYLYTDDAQQTEAHLEIREDGTVGGAADQSPESLLQLKALKPGVIQILGVKTSRFLCQRPDGALYGSLHFDPEACSFRELLLEDGYNVYQSEAHGLPLHLPGQKSPHRDPAPRGPARFLPLPGLPPALPEPPGILAPQPPDVGSSDPLSLVGPSQGRSPSYAS | – |
| 3.3 | 6.13 ± 0.8 | 4.1 | 11.9 | 2.8 | 0.1 | 1.4 | – | 7.47 | 198 | zalfermin (NNC0194-0499, 15) (ligand, human, C18 diacid gGlu-OEG-OEG-C2DA-Ac side chain on Cys180, single amino acid N-terminal extension (-1Ala), giving the N-terminus AHPIP; human FGF21, mature 181-residue hormone; numbers count on: the mature protein; 20.3 kDa; also called FGF21 analog 15; source: E. coli BL21 (DE3)-derived strain, inclusion bodies, purified; side chain conjugated to the Cys, purified by anion exchange (MonoQ)) AHPIPDSSPLLQFGGQVRQRYLYTDDAQQTEAHLEIREDGTVGGAADQSPESLLQLKALKPGVIQILGVKTSRFLCQRPDGALYGSLHFDPEACSFRELLLEDGYNVYQSEAHGLPLHLPGQKSPHRDPAPRGPARFLPLPGLPPALPEPPGILAPQPPDVGSSDPLSLVGPSQGRSPSYCS | binds |
| 39 | 5.72 ± 0.02 | – | – | – | – | – | – | – | – | FGF21 analog 18 (-1A, 121Q, 168L, 181C; C18 fatty diacid on 181C) (ligand, human, C18 diacid gGlu-OEG-OEG-C2DA-Ac side chain on Cys181, single amino acid N-terminal extension (-1A), giving the N-terminus AHPIP; human FGF21, mature 181-residue hormone; numbers count on: the mature protein; source: E. coli BL21 (DE3)-derived strain, inclusion bodies, purified; side chain conjugated to the Cys, purified by anion exchange (MonoQ)) AHPIPDSSPLLQFGGQVRQRYLYTDDAQQTEAHLEIREDGTVGGAADQSPESLLQLKALKPGVIQILGVKTSRFLCQRPDGALYGSLHFDPEACSFRELLLEDGYNVYQSEAHGLPLHLPGQKSPHRDPAPRGPARFLPLPGLPPALPEPPGILAPQPPDVGSSDPLSLVGPSQGRSPSYAC | – |
